# According to patent publication US11370846B2, “Compositions and methods to regulate Renalase in the treatment of cancer” (Yale University, priority 2014, dated 2022):
# B1: rRNLS: Recombinant human RNLS (renalase) (protein)
# chain: ALLRRQTSGPLYLAVWDKAEDSGGRMTTACSPHNPQCTADLGAQYITCTPHYAKKHQRFYDELLAYGVLRPLSSPIEGMVMKEGDCNFVAPQGISSIIKHYLKESGAEVYFRHRVTQINLRDDKWEVSKQTGSPEQFDLIVLTMPVPEILQLQGDITTLISECQRQQLEAVSYSSRYALGLFYEAGTKIDVPWAGQYITSNPCIRFVSIDNKKRNIESSEIGPSLVIHTTVPFGVTYLEHSIEDVQELVFQQLENILPGLPQPIATKCQKWRHSQVTNAAANCPGQMTLHHKPFLACGGDGFTQSNFDGCITSALCVLEALKNYI
# How the values were obtained:
# Format in all cases: cell-based, human
# STAT3 [1] = assay: STAT3 phosphorylation in Panc1 cells by western blot; conditions: addition of RNLS
# Source text: FIG. 27A through FIG. 27E are a series of images and charts showing the interaction between RNLS and STAT3, and the mechanistic model of inhibition by m28-RNLS. FIG. 27A is an image showing activation of STAT3 by RNLS in Panc1 cells; Panc1 cells in culture treated with either BSA or RNLS, and STAT3 phosphorylation assessed by western blot; p-Ser^727-STAT3: phosphorylation at serine 727, p-Y^705-STAT3: phosphorylation at tyrosine 705; representative study. FIG. 27B is a chart depicting the quantification of STAT3 phosphorylation with RNLS; signals normalized to total STAT3; n=3, *=P<0.05. […] FIG. 27D is a chart showing the quantification of STAT3 phosphorylation with m28-RNLS; signals normalized to GAPDH loading control; n=3, *=P<0.05. FIG. 27E depicts the proposed mechanistic model for antitumor activity of m28-RNLS.
# STAT3 [2] = assay: STAT phosphorylation in HK-2 cells treated with RNLS
# [3] = system: melanoma cells (A375.S2, MeWo, SkMe15, and SkMe128); assay: Survival of serum-starved melanoma cells with rRNLS, WST-1; conditions: 30 ug/ml, 72 hrs, compared to BSA
# Protocol: FIG. 18A and FIG. 18B are two charts showing that RNLS overexpression favors cancer cell survival.
# For additional studies, cell viability was determined using WST-1 reagent (Roche Diagnostics, Indianapolis, Ind., USA) according to the manufacturers' instruction. Absorbances were read using a microplate reader (Power Waves XS, BioTek Instruments, Winooski, Vt., USA).
# MiaPaCa2 cells = assay: FACS cell cycle analysis of MiaPaCa2 cells treated with rRNLS; conditions: 30 μg/ml, compared to BSA
# Protocol: For cell cycle analysis, cultured cells were dissociated using 10 mM EDTA, fixed with ice-cold 70% ethanol, digested with RNAse A, and stained with propidium iodide. Propidium staining was detected using a BD FACSCalibur flow cytometer (BD Biosciences, San Jose, Calif., USA), and analyzed using CellQuest software.
molecule,measurement,setting,value
B1,phosphorylated STAT3 (p-Ser727-STAT3 and p-Y705-STAT3) in Panc1,STAT3 [1],rapid increase
same,increase in STAT3 phosphorylation at serine 727 (p-Ser727-STAT3),STAT3 [2],2 fold
same,increase in STAT3 phosphorylation at tyrosine 705 (p-Y705-STAT3),STAT3 [2],4 fold
same,survival of serum-starved melanoma cells,[3],markedly increased the survival
same,cell cycle progression,MiaPaCa2 cells,no effect
